# Key:
# cMetECDHis [1] = target: T1, cMetECDHis (human, UniProt P08581 25-932, limits assumed, biotinylated in the cross-block ELISA of Example 17); assay: cross-block ELISA; competitor 098
# T1 construct: Expressed in HEK-293F cells; also called soluble cMetECDHis; biotinylated cMetECDHis
# Method: (§1) First, the optimal coating concentrations of the tested anti-c-Met antibodies and the optimal cMetECDHis concentration were determined. Therefore, ELISA wells were coated overnight at 4° C. with anti-c-Met HuMabs serially diluted in PBS (8 μg/mL in 2-fold dilutions). Next, the ELISA wells were washed with PBST (PBS supplemented with 0.05% Tween-20 [Sigma-Aldrich, Zwijndrecht, The Netherlands]) and blocked for one hour at room temperature (RT) with PBSTC (PBST supplemented 2% [v/v] chicken serum [Gibco, Paisley, Scotland]). Subsequently, the ELISA wells were washed with PBST and incubated for one hour at RT with biotinylated cMetECDHis serially diluted in PBSTC (1 μg/mL in 2-fold dilutions). Unbound biotinylated cMetECDHis was washed away with PBST, and bound biotinylated cMetECDHis was incubated for one hour at RT with 0.1 μg/mL Streptavidin-poly-HRP (Sanquin, Amsterdam, The Netherlands) diluted in PBST.
# (§2) ELISA wells were coated with anti-c-Met antibody at a sub-optimal dose as described above. After blocking of the ELISA wells, they were incubated with the predetermined concentration of biotinylated cMetECDHis in the presence of an excess of anti-c-Met antibody. The reaction was developed as described above. Residual binding was expressed as a percentage relative to the binding observed in the absence of competitor antibody.
# cMetECDHis [2] = target: T1, cMetECDHis; assay: cross-block ELISA; competitor 181
# Method: as §1, §2
# cMetECDHis [3] = target: T1, cMetECDHis; assay: cross-block ELISA; competitor 058
# Method: as §1, §2
# cMetECDHis [4] = target: T1, cMetECDHis; assay: cross-block ELISA; competitor 5D5
# Method: as §1, §2
# cMetECDHis [5] = target: T1, cMetECDHis; assay: cross-block ELISA; competitor 024
# Method: as §1, §2
# cMetECDHis [6] = target: T1, cMetECDHis; assay: cross-block ELISA; competitor G11-HZ
# Method: as §1, §2
# cMetECDHis [7] = target: T1, cMetECDHis; assay: cross-block ELISA; competitor 035
# Method: as §1, §2
# cMetECDHis [8] = target: T1, cMetECDHis; assay: cross-block ELISA; competitor 062
# Method: as §1, §2
# cMetECDHis [9] = target: T1, cMetECDHis; assay: cross-block ELISA; competitor 101
# Method: as §1, §2
# cMetECDHis [10] = target: T1, cMetECDHis; assay: cross-block ELISA; competitor 045
# Method: as §1, §2
# cMetECDHis [11] = target: T1, cMetECDHis; assay: cross-block ELISA; competitor 022
# Method: as §1, §2
# cMetECDHis [12] = target: T1, cMetECDHis; assay: BLI (Octet); antibody captured, cMetECDHis in solution
# Method: Antibody binding to cMetECDHis was analyzed by means of Bio-Layer Interferometry (BLI) technology on the Octet System (Fortebio, Menlo Park, USA). Anti-human IgG coated biosensors (Fc-specific) were used to capture anti-c-Met antibodies according to the procedure recommended by the manufacturer. cMetECDHis derived from HEK293 cells was loaded on top of the immobilized anti-c-Met antibodies by placing the loaded biosensor into a well containing 10 μg/mL cMetECDHis diluted in 10 times diluted kinetics buffer (Fortebio). The difference in reflection of light (AA, nm) of the biosensor surface due to the binding of cMetECDHis was measured in real time during approximately 10 minutes and was used by the Octet software (V4.0, Fortebio) to calculate the association constant (kₐ [1/M×s]). Next, the loaded biosensor was placed into a well containing only kinetics buffer (10 times diluted in PBS) to determine the dissociation constant (kd [1/s]). Kinetics analysis was performed to determine the affinity (KD [M]) using model 1:1 (langmuir). As a positive control, 0.2 μg/mL 5D5 IgG1 produced in HEK293 cells, was used.
# cMetECDHis [13] = target: T1, cMetECDHis; assay: cross-block ELISA; competitor 006
# Method: as §1, §2
# cMetECDHis [14] = target: T1, cMetECDHis; assay: cross-block ELISA; competitor 005
# Method: as §1, §2
# cMetECDHis [15] = target: T1, cMetECDHis; assay: cross-block ELISA; competitor 008
# Method: as §1, §2
# cMetECDHis [16] = target: T1, cMetECDHis; assay: cross-block ELISA; competitor 069
# Method: as §1, §2
# cMetECDHis [17] = target: T1, cMetECDHis; assay: cross-block ELISA; competitor 064
# Method: as §1, §2
Binder,"residual binding, % of no competitor (cMetECDHis [1]) [%]","residual binding, % of no competitor (cMetECDHis [2]) [%]","residual binding, % of no competitor (cMetECDHis [3]) [%]","residual binding, % of no competitor (cMetECDHis [4]) [%]","residual binding, % of no competitor (cMetECDHis [5]) [%]","residual binding, % of no competitor (cMetECDHis [6]) [%]","residual binding, % of no competitor (cMetECDHis [7]) [%]","residual binding, % of no competitor (cMetECDHis [8]) [%]","residual binding, % of no competitor (cMetECDHis [9]) [%]","residual binding, % of no competitor (cMetECDHis [10]) [%]","residual binding, % of no competitor (cMetECDHis [11]) [%]",Kd (cMetECDHis [12]) [nM],koff (cMetECDHis [12]) [s⁻¹],kon (cMetECDHis [12]) [M⁻¹ s⁻¹],"residual binding, % of no competitor (cMetECDHis [13]) [%]","residual binding, % of no competitor (cMetECDHis [14]) [%]","residual binding, % of no competitor (cMetECDHis [15]) [%]","residual binding, % of no competitor (cMetECDHis [16]) [%]","residual binding, % of no competitor (cMetECDHis [17]) [%]"
"IgG1-1016-022 (antibody, V domains shown, also called TH1016-022; PC1016-022) VH: QVQLVESGGGVVQPGRSLRLSCAASGFTFSSYAMHWVRQAPGKGLEWVAVISYDGSNKYYADSVKGRFTISRDNSKNTLYLQMNSLRAEDTAVYYCARELLWFGELWGYFDLWGRGTLVTVSS VL: DIQMTQSPSSVSASVGDRVTITCRASQGISSWLAWYQHKPGKAPKLLIYAASSLQSGVPSRFSGSGSGTDFTLTISSLQPEDFATYYCQEASSFTWTFGQGTKVEIK",105,107,5.8,4.2,99.4,85.9,92.4,99.4,104,95.7,3.8,1.06,0.000251,236000,60.5,37.9,94.1,99.6,102
"IgG1-024 (antibody, V domains shown, also called TH1016-024; PC1016-024) VH: EVQLLESGGGLVQPGGSLRLSCVASGFTFSSYAMSWVRQAPGKGLEWVSAISGSSGGSTYYVDSVKGRFTISRANSKNTLYLQMNSLRAEDTAVYYCAKDLDRGWMGYFGYWGQGTLVTVSS VL: DIQMTQSPSSVSASVGDRVTITCRASQGISSWLAWYQHKPGKAPKLLIYAASSLQSGVPSRFSGSGSGTDFTLTISSLQPEDFATYYCQQANSFPTFGQGTRLEIK",10.4,7.1,103,95.5,5.4,98.2,108,2.3,4.8,98.1,100,1.57,0.000228,145000,101,98.4,104,2.9,2.3
"anti-c-Met HuMab 035 (IgG1) (antibody, V domains shown, also called P1016-035; TH1016-035-D09) VH: EVQLVQSGAEVKKPGESLKISCKGSGYSFTSYWIGWVRQMPGKGLEWMGIIYPGDSDTRYSPSFQGQVTISADKSISTAYLQWNSLKASDTAMYYCARQEITGEFDYWGQGTLVTVSS VL: AIQLTQSPSSLSASVGDRVTITCRASQGISSALAWYQQKPGKAPKLLIYDASSLESGVPSRFSGSGSGTDFTLTISSLQPEDFATYYCQQFNSYPMYTFGQGTKLEIK",126,159,18.5,25.5,121,7.8,10.6,120,113,125,54.6,13.9,0.00368,264000,33,36.7,7.2,151,132
"anti-c-Met HuMab 045 (IgG1) (antibody, V domains shown, also called TH1016-045; PC1016-045) VH: EVQLLESGGGLVQPGGSLRLSCAASGFTFSSYAMSWVRQAPGKGLEWVSVISGSGGITYYADSVKGRFTISRDNSKNTLYLQMNSLRAEDTAVYYCARDRGWGSDYWGQGTLVTVSS VL: EIVLTQSPATLSLSPGERATLSCRASQSVSSYLAWYQQKPGQAPRLLIYDASNRATGIPARFSGSGSGTDFTLTISSLEPEDFAVYYCQQRSNWPFTFGPGTKVDIK",76.4,99.4,115,27.8,102,99.3,105,103,102,21.3,105,2.87,0.00207,721000,111,111,98.5,97,104
